In PMC7538587:
“And” between values parts separate entries of the source, which are not always exact repeats. Equal values may be shown once.

Columns and labels:
[1] = target: SALT protein (Oryza sativa L. (Pusa basmati-1)) (UniProt A2WPN7); test: SAXS; SALT freshly eluted from gel filtration, 5, 11 and 22 mg/ml, 20 °C; molecular weight from SAXS about 32.2-33.4 kDa
[2] = target: SALT protein (Oryza sativa L. (Pusa basmati-1)) (UniProt A2WPN7); test: SDS-PAGE without heat denaturation; purified SALT, 1 mg/ml, 12% gel, with SDS and BME, not heated; confirmed by immunoblotting
[3] = target: SALT protein (Oryza sativa L. (Pusa basmati-1)) (UniProt A2WPN7); test: SEC; Superdex 200 10/300 GL, 200 µl of 5 mg/ml SALT, 20 mM each of mannose and galactose in sample and buffer; calibrated with marker proteins

stoichiometry N [1]: 2
stoichiometry N [2]: 2 and 4
stoichiometry N [3]: 2
Substance: SALT protein (from UniProt A2WPN7 1-145) (natural protein)
